For assay [1], the target named is Tyrosine phosphatase Sts1, Q8BGG7. Kind of assay: co-immunoprecipitation (anti-Bcr-Abl/Abl IP, Sts1 immunoblot, quantified). The settings on record: chain shown with the change; BaF3 cells stably transduced with the Bcr-Abl variants; parent: est. 1.0; read off a plot. On the technique in general: A western blot detects proteins with antibodies after separation by electrophoresis.

The target of assay [2] is monobody Mb(Bcr-PH_4), displayed on yeast surface. Kind of assay: flow cytometry on cells; monobody displayed on yeast surface; biotinylated target 10 nM to 1 uM in TBS with 0.1% BSA, 30 min at RT; streptavidin-DyLight650; 1:1 binding model; apparent Kd. (In flow cytometry, cells or beads pass a laser one at a time.)

Substitutions are numbered along the chain they refer to. Numbers in names are those of the source.

Sequence of Tyrosine phosphatase Sts1, Q8BGG7 (Q8BGG7 whole entry): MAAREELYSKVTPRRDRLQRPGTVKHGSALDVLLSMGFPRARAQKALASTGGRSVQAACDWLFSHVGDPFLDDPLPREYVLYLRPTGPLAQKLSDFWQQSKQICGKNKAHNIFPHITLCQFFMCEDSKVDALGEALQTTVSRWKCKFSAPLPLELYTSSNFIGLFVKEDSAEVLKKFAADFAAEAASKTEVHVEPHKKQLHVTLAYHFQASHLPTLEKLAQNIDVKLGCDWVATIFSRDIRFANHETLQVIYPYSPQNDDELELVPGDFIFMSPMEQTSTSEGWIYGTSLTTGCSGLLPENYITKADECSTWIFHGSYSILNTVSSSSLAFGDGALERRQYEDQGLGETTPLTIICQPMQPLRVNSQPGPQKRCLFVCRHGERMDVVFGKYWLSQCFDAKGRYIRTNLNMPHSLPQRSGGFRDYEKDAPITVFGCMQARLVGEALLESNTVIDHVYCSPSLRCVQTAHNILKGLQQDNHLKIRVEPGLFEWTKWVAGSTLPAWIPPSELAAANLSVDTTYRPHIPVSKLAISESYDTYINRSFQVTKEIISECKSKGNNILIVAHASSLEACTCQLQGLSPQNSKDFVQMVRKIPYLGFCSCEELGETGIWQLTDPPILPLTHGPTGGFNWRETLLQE

B1: Bcr-Abl p210, P11274 R726A (protein)
chain: MVDPVGFAEAWKAQFPDSEPPRMELRSVGDIEQELERCKASIRRLEQEVNQERFRMIYLQTLLAKEKKSYDRQRWGFRRAAQAPDGASEPRASASRPQPAPADGADPPPAEEPEARPDGEGSPGKARPGTARRPGAAASGERDDRGPPASVAALRSNFERIRKGHGQPGADAEKPFYVNVEFHHERGLVKVNDKEVSDRISSLGSQAMQMERKKSQHGAGSSVGDASRPPYRGRSSESSCGVDGDYEDAELNPRFLKDNLIDANGGSRPPWPPLEYQPYQSIYVGGMMEGEGKGPLLRSQSTSEQEKRLTWPRRSYSPRSFEDCGGGYTPDCSSNENLTSSEEDFSSGQSSRVSPSPTTYRMFRDKSRSPSQNSQQSFDSSSPPTPQCHKRHRHCPVVVSEATIVGVRKTGQIWPNDGEGAFHGDADGSFGTPPGYGCAADRAEEQRRHQDGLPYIDDSPSSSPHLSSKGRGSRDALVSGALESTKASELDLEKGLEMRKWVLSGILASEETYLSHLEALLLPMKPLKAAATTSQPVLTSQQIETIFFKVPELYEIHKEFYDGLFPRVQQWSHQQRVGDLFQKLASQLGVYRAFVDNYGVAMEMAEKCCQANAQFAEISENLRARSNKDAKDPTTKNSLETLLYKPVDRVTRSTLVLHDLLKHTPASHPDHPLLQDALRISQNFLSSINEEITPRRQSMTVKKGEHRQLLKDSFMVELVEGARKLAHVFLFTDLLLCTKLKKQSGGKTQQYDCKWYIPLTDLSFQMVDELEAVPNIPLVPDEELDALKIKISQIKNDIQREKRANKGSKATERLKKKLSEQESLLLLMSPSMAFRVHSRNGKSYTFLISSDYERAEWRENIREQQKKCFRSFSLTSVELQMLTNSCVKLQTVHSIPLTINKEDDESPGLYGFLNVIVHSATGFKQSSNLYCTLEVDSFGYFVNKAKTRVYRDTAEPNWNEEFEIELEGSQTLRILCYEKCYNKTKIPKEDGESTDRLMGKGQVQLDPQALQDRDWQRTVIAMNGIEVKLSVKFNSREFSLKRMPSRKQTGVFGVKIAVVTKRERSKVPYIVRQCVEEIERRGMEEVGIYRVSGVATDIQALKAAFDVNNKDVSVMMSEMDVNAIAGTLKLYFRELPEPLFTDEFYPNFAEGIALSDPVAKESCMLNLLLSLPEANLLTFLFLLDHLKRVAEKEAVNKMSLHNLATVFGPTLLRPSEKESKLPANPSQPITMTDSWSLEVMSQVQVLLYFLQLEAIPAPDSKRQSILFSTEV
Take B1: the ratio to parent in assay [1] amounted to 0.34.

B2: Bcr-Abl p210, P11274 R723A; K724A (protein)
chain: B1 chain with R723A, K724A, A726R
As to B2, the ratio to parent in assay [1] amounted to 0.53.

B3: biotinylated Bcr-Abl PH domain (Avi-tag) (domain or fragment)
chain: GEHRQLLKDSFMVELVEGARKLRHVFLFTDLLLCTKLKKQSGGKTQQYDCKWYIPLTDLSFQMVDELEAVPNIPLVPDEELDALKIKISQIKNDIQREKRANKGSKATERLKKKLSEQESLLLLMSPSMAFRVHSRNGKSYTFLISSDYERAEWRENIREQQKKCFRSFSLTSVELQMLTNSCVKLQTVH
modifications: biotin on the Avi-tag
Turning to B3, in assay [2], the Kd is 33 nM.
